From paper PMC11974935 (bioRxiv, 2025)

Target: the molecule itself
Assay: mass photometry

B1: full-length, wild-type Cdc13 (natural protein, S. cerevisiae, UniProt P32797 1-924, looked up)
chain: MDTLEEPECPPHKNRIFVSSSKDFEGYPSKAIVPVQFVALLTSIHLTETKCLLGFSNFERRGDQSQEDQYLIKLKFKDRGSERLARITISLLCQYFDIELPDLDSDSGASPTVILRDIHLERLCFSSCKALYVSKHGNYTLFLEDIKPLDLVSVISTISTKSTNSSKHSSSELISECDLNNSLVDIFNNLIEMNRDEKNRFKFVKLIHYDIELKKFVQDQQKVLSQKSKAAAINPFFVPNRLGIPYIESQNEFNSQLMTLNVDEPTTDISNMGEEMHDSADPIEDSDSSTTSSTGKYFSSKSYIQSQTPERKTSVPNNWHDDDSGSKRKRKLSFHSPNASSIRKAISYEQLSLASVGSVERLEGKIVGMNPPQFASINEFKYCTLKLYFTQLLPNVPDKVLVPGVNCIEIVIPTRERICELFGVLNCQSDKISDILLLEKPDRISVEVERILWDNDKTASPGMAVWSLKNISTDTQAQAQVQVPAQSSASIDPSRTRMSKMARKDPTIEFCQLGLDTFETKYITMFGMLVSCSFDKPAFISFVFSDFTKNDIVQNYLYDRYLIDYENKLELNEGFKAIMYKNQFETFDSKLRKIFNNGLRDLQNGRDENLSQYGIVCKMNIKVKMYNGKLNAIVRECEPVPHSQISSIASPSQCEHLRLFYQRAFKRIGESAISRYFEEYRRFFPIHRNGSHLAKLRFDEVKHEPKKSPTTPALAEHIPDLNADVSSFDVKFTDISSLLDSSARLPRPQQTHKSNTLYSCEGRIIAIEYHASDLCFHITNELPLLQTRGLAPERVLQLHIITSKNFAYFFNRSSAYLQRQPLEEKYTQLAQFLGHSFKFNITSSLTLFPDTTVALQIWCPIECTFRELQQQLAHPKVAAAPDSGSLDCAINATVNPLRLLAAQNGVTVKKEEDNDDDAGAVPTS
  stoichiometry N: 2
